Measured values published in patent publication US20090304651A1 (published 2009).
Where two headings read alike, the source gives them in different places.

B1: IGF2R domain 11 G1619R (amino acids 1511-1650, C-terminal His6 tag, from Pichia pastoris) (receptor)
chain: NEHDDCQVTNPSTGHLFDLSSLSGRAGFTAAYSEKGLVYMSICGENENCPPGVGACFGQTRISVGKANKRLRYVDQVLQLVYKDGSPCPSKSGLSYKSVISFVCRPEARPTNRPMLISLDKQTCTLFFSWHTPLACEQATHHHHHH
notes: also called polymorphism G1619R
B2: IGF2R domain 11 with threonine at position 1544 (E1544T) (receptor)
chain: NEHDDCQVTNPSTGHLFDLSSLSGRAGFTAAYSTKGLVYMSICGENENCPPGVGACFGQTRISVGKANKRLRYVDQVLQLVYKDGSPCPSKSGLSYKSVISFVCRPEAGPTNRPMLISLDKQTCTLFFSWHTPLACEQATHHHHHH
B3: IGF2R domain 11 with tryptophan at position 1544 (E1544W) (receptor)
chain: NEHDDCQVTNPSTGHLFDLSSLSGRAGFTAAYSWKGLVYMSICGENENCPPGVGACFGQTRISVGKANKRLRYVDQVLQLVYKDGSPCPSKSGLSYKSVISFVCRPEAGPTNRPMLISLDKQTCTLFFSWHTPLACEQATHHHHHH
B4: IGF2R domain 11 with glycine at position 1544 (E1544G) (receptor)
chain: NEHDDCQVTNPSTGHLFDLSSLSGRAGFTAAYSGKGLVYMSICGENENCPPGVGACFGQTRISVGKANKRLRYVDQVLQLVYKDGSPCPSKSGLSYKSVISFVCRPEAGPTNRPMLISLDKQTCTLFFSWHTPLACEQATHHHHHH
B5: IGF2R domain 11 with asparagine at position 1544 (E1544N) (receptor)
chain: NEHDDCQVTNPSTGHLFDLSSLSGRAGFTAAYSNKGLVYMSICGENENCPPGVGACFGQTRISVGKANKRLRYVDQVLQLVYKDGSPCPSKSGLSYKSVISFVCRPEAGPTNRPMLISLDKQTCTLFFSWHTPLACEQATHHHHHH
B6: IGF2R domain 11 with histidine at position 1544 (E1544H) (receptor)
chain: NEHDDCQVTNPSTGHLFDLSSLSGRAGFTAAYSHKGLVYMSICGENENCPPGVGACFGQTRISVGKANKRLRYVDQVLQLVYKDGSPCPSKSGLSYKSVISFVCRPEAGPTNRPMLISLDKQTCTLFFSWHTPLACEQATHHHHHH
B7: IGF2R domain 11 with proline at position 1544 (E1544P) (receptor)
chain: NEHDDCQVTNPSTGHLFDLSSLSGRAGFTAAYSPKGLVYMSICGENENCPPGVGACFGQTRISVGKANKRLRYVDQVLQLVYKDGSPCPSKSGLSYKSVISFVCRPEAGPTNRPMLISLDKQTCTLFFSWHTPLACEQATHHHHHH
B8: IGF2R domain 11 with tyrosine at position 1544 (E1544Y) (receptor)
chain: NEHDDCQVTNPSTGHLFDLSSLSGRAGFTAAYSYKGLVYMSICGENENCPPGVGACFGQTRISVGKANKRLRYVDQVLQLVYKDGSPCPSKSGLSYKSVISFVCRPEAGPTNRPMLISLDKQTCTLFFSWHTPLACEQATHHHHHH
B9: IGF2R domain 11 with isoleucine at position 1544 (E1544I) (receptor)
chain: NEHDDCQVTNPSTGHLFDLSSLSGRAGFTAAYSIKGLVYMSICGENENCPPGVGACFGQTRISVGKANKRLRYVDQVLQLVYKDGSPCPSKSGLSYKSVISFVCRPEAGPTNRPMLISLDKQTCTLFFSWHTPLACEQATHHHHHH
B10: IGF2R domain 11 with arginine at position 1544 (E1544R) (receptor)
chain: NEHDDCQVTNPSTGHLFDLSSLSGRAGFTAAYSRKGLVYMSICGENENCPPGVGACFGQTRISVGKANKRLRYVDQVLQLVYKDGSPCPSKSGLSYKSVISFVCRPEAGPTNRPMLISLDKQTCTLFFSWHTPLACEQATHHHHHH
B11: IGF2R domain 11 with methionine at position 1544 (E1544M) (receptor)
chain: NEHDDCQVTNPSTGHLFDLSSLSGRAGFTAAYSMKGLVYMSICGENENCPPGVGACFGQTRISVGKANKRLRYVDQVLQLVYKDGSPCPSKSGLSYKSVISFVCRPEAGPTNRPMLISLDKQTCTLFFSWHTPLACEQATHHHHHH
B12: IGF2R domain 11 with serine at position 1544 (E1544S) (receptor)
chain: NEHDDCQVTNPSTGHLFDLSSLSGRAGFTAAYSSKGLVYMSICGENENCPPGVGACFGQTRISVGKANKRLRYVDQVLQLVYKDGSPCPSKSGLSYKSVISFVCRPEAGPTNRPMLISLDKQTCTLFFSWHTPLACEQATHHHHHH
B13: IGF2R domain 11 with glutamine at position 1544 (E1544Q) (receptor)
chain: NEHDDCQVTNPSTGHLFDLSSLSGRAGFTAAYSQKGLVYMSICGENENCPPGVGACFGQTRISVGKANKRLRYVDQVLQLVYKDGSPCPSKSGLSYKSVISFVCRPEAGPTNRPMLISLDKQTCTLFFSWHTPLACEQATHHHHHH
B14: IGF2R domain 11 with phenylalanine at position 1544 (E1544F) (receptor)
chain: NEHDDCQVTNPSTGHLFDLSSLSGRAGFTAAYSFKGLVYMSICGENENCPPGVGACFGQTRISVGKANKRLRYVDQVLQLVYKDGSPCPSKSGLSYKSVISFVCRPEAGPTNRPMLISLDKQTCTLFFSWHTPLACEQATHHHHHH
B15: IGF2R domain 11 with leucine at position 1544 (E1544L) (receptor)
chain: NEHDDCQVTNPSTGHLFDLSSLSGRAGFTAAYSLKGLVYMSICGENENCPPGVGACFGQTRISVGKANKRLRYVDQVLQLVYKDGSPCPSKSGLSYKSVISFVCRPEAGPTNRPMLISLDKQTCTLFFSWHTPLACEQATHHHHHH
B16: IGF2R domain 11 with aspartate at position 1544 (E1544D) (receptor)
chain: NEHDDCQVTNPSTGHLFDLSSLSGRAGFTAAYSDKGLVYMSICGENENCPPGVGACFGQTRISVGKANKRLRYVDQVLQLVYKDGSPCPSKSGLSYKSVISFVCRPEAGPTNRPMLISLDKQTCTLFFSWHTPLACEQATHHHHHH

What was measured:
[1] = target: T1, recombinant human IGF-II (Insulin-like Growth Factor II) (human, UniProt P01344 25-91, biotinylated (Biotinyl-IGF-II, GroPep) where immobilised in SPR, site not stated; not biotinylated in ITC and as SPR analyte); assay: SPR, steady-state KD relative to wild type
T1 construct: also called IGF2; IGF-2
T1 sequence (P01344 25-91 limits assumed): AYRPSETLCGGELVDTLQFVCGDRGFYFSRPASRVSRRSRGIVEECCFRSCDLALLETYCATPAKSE
Description: […]. Values are the mean±S.E.M. of three separate experiments.
Kinetic analysis by Surface Plasmon Resonance (SPR) was conducted on a BIAcore 3000 biosensor (BIAcore, Uppsala, Sweden) at 25° C. in HBS-EP (10 mM HEPES, pH 7.4, 150 mM NaCl, 3 mM EDTA, 0.005% surfactant P20) at a flow rate of 40 μl/min. […] Kinetic experiments consisted of a two minute injection of analyte followed by a 100 s dissociation phase in running buffer, after which the binding surface was regenerated with a 2 minute injection of 2 M MgCl₂. A blank flow cell was used for in-line reference subtraction of changes due to differences in refractive index of running buffer versus sample and a buffer-only injection was used to subtract instrument noise and drift. Injections were performed in duplicate for each concentration and in a randomised order. Kinetic parameters were determined by global fitting of sensorgrams to a two-state (conformational change) binding model using BIAevaluation software version 4.0.1. In all cases the minor component made an insignificant contribution to the overall affinity and as such only the kinetic parameters of the major binding component were used. For each interaction the dissociation affinity constant (KD) was also calculated by fitting of the response of each concentration at equilibrium to a steady-state affinity model using BIAevaluation. In order to investigate the influence of ionic strength, kinetic experiments were conducted in HBS-EP running buffers containing the desired NaCl concentration. In each case, analyte samples were made up in the appropriate running buffer prior to injection.
Following purification, the binding of each mutant construct to IGF2 was assessed by SPR and compared to the wild type domain 11.

[2] = target: T1, recombinant human IGF-II (Insulin-like …); assay: SPR, IGF-II immobilised, kinetic fit
How it was run: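 Kd, together with association and dissociation rates, was determined by globally fitting blank-flow-cell- and buffer-subtracted sensorgrams in BIAevaluation 4.0.1. The sensorgrams were recorded on a BIAcore 3000 at 25° C in HBS-EP, flowing at 40 μl/min, by injecting His-tag-purified, Pichia pastoris-secreted domain 11 proteins in duplicate and in randomised order over ~50 RU biotinylated IGF-II on a streptavidin Sensor Chip SA. Each injection lasted 2 min, followed by 100 s dissociation and regeneration with 2 M MgCl₂. Analyte was run at 4096–8 nM, except for three constructs run at 16384–32 nM.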

[3] = target: T1, recombinant human IGF-II (Insulin-like …); assay: SPR, IGF-II immobilised, steady state
How it was run: (§1)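 Duplicate 2 min injections of His-tag-purified, Pichia pastoris-secreted domain 11 proteins at 4096–8 nM (16384–32 nM for three constructs) passed over ~50 RU biotinylated IGF-II on a streptavidin Sensor Chip SA. A BIAcore 3000 ran at 25° C in HBS-EP at 40 μl/min, with blank-flow-cell and buffer-injection responses subtracted. Equilibrium responses were fitted in BIAevaluation to a steady-state affinity model to yield Kd, and relative affinity scales each value to the unaltered domain 11 protein.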

[4] = target: T1, recombinant human IGF-II (Insulin-like …); assay: SPR, steady-state KD relative to wild type; remark: listed apart in the source
How it was run: as §1

Binder | Relative Affinity [1] | Kd [2] [nM] | koff [2] [s⁻¹] | kon [2] [M⁻¹ s⁻¹] | Kd [3] [nM] | Relative Affinity [4]
B1 | 0.9 fold (wild type = 1.00) |  |  |  |  | 
B2 |  | 69.3 | 0.0692 | 998000 | 60 | 1.72 fold (wild type = 1.00)
B3 |  | 62.8 | 0.0588 | 936000 | 53.2 | 1.94 fold (wild type = 1.00)
B4 |  | 199 | 0.219 | 1.1e+06 | 180 | 0.57 fold (wild type = 1.00)
B5 |  | 141 | 0.122 | 867000 | 118 | 0.88 fold (wild type = 1.00)
B6 |  | 38.3 | 0.0689 | 1.8e+06 | 33.7 | 3.07 fold (wild type = 1.00)
B7 |  | 234 | 0.172 | 734000 | 211 | 0.49 fold (wild type = 1.00)
B8 |  | 65 | 0.0614 | 944000 | 57.4 | 1.8 fold (wild type = 1.00)
B9 |  | 49.9 | 0.0649 | 1.3e+06 | 42.5 | 2.43 fold (wild type = 1.00)
B10 |  | 17.8 | 0.0407 | 2.29e+06 | 14.1 | 7.33 fold (wild type = 1.00)
B11 |  | 44.6 | 0.0566 | 1.27e+06 | 37.6 | 2.75 fold (wild type = 1.00)
B12 |  | 23.3 | 0.0494 | 2.12e+06 | 19.7 | 5.24 fold (wild type = 1.00)
B13 |  | 32.8 | 0.0578 | 1.76e+06 | 26.7 | 3.87 fold (wild type = 1.00)
B14 |  | 69.4 | 0.0791 | 1.14e+06 | 56.4 | 1.83 fold (wild type = 1.00)
B15 |  | 62.4 | 0.0655 | 1.05e+06 | 51.1 | 2.02 fold (wild type = 1.00)
B16 |  | 230 | 0.14 | 608000 | 213 | 0.48 fold (wild type = 1.00)
